The values below are quoted from earlier work in article PMC7424061.

Usually Kd stands for the equilibrium constant for the complex coming apart.

The data set addresses p53 TAD (Homo sapiens) (UniProt P04637).

azurin, sequence (P00282 21-148): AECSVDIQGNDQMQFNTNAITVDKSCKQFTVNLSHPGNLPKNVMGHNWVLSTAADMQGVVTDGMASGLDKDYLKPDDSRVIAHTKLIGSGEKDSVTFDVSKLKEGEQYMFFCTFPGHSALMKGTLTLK
p53 TAD (Homo sapiens), sequence (P04637 1-61): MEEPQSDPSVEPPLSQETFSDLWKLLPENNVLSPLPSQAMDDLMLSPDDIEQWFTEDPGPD

Consider azurin (from UniProt P00282), for which the Kd is 7 µM.
